# T1: GFP-linked full-length hnRNPH1 (amino acids 2 through 449) (human (cDNA library from HEK-293T cells), UniProt P31943 2-449)
# T1 sequence: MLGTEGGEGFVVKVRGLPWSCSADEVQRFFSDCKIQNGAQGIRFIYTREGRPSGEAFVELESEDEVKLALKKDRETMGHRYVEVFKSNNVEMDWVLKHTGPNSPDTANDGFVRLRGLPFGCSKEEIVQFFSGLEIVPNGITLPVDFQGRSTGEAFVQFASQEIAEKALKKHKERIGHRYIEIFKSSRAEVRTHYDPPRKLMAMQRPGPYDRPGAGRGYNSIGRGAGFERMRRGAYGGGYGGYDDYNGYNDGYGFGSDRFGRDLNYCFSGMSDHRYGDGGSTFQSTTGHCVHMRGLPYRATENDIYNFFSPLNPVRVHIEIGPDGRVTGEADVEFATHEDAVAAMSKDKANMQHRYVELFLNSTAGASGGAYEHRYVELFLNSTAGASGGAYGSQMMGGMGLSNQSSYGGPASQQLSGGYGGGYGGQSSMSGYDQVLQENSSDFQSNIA
# T2: GFP:hnRNPH1-LC1, His tag cleaved, as liquid-like droplets (human (cDNA library from HEK-293T cells), UniProt P31943 192-280)
# T2 sequence: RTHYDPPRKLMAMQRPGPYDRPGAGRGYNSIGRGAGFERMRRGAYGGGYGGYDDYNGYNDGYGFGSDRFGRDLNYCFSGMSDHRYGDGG
# Columns and labels:
# [1] = target: T1, GFP-linked full-length hnRNPH1 (amino …); test: hydrogel-binding assay
# [2] = target: T2, GFP:hnRNPH1-LC1, His tag cleaved, as …; test: LLD incorporation assay
binder,measurement,setting,value
"mCherry-linked C-terminal half of hnRNPH1 (amino acids 192 through 449), as hydrogel droplets or polymers (domain or fragment) RTHYDPPRKLMAMQRPGPYDRPGAGRGYNSIGRGAGFERMRRGAYGGGYGGYDDYNGYNDGYGFGSDRFGRDLNYCFSGMSDHRYGDGGSTFQSTTGHCVHMRGLPYRATENDIYNFFSPLNPVRVHIEIGPDGRVTGEADVEFATHEDAVAAMSKDKANMQHRYVELFLNSTAGASGGAYEHRYVELFLNSTAGASGGAYGSQMMGGMGLSNQSSYGGPASQQLSGGYGGGYGGQSSMSGYDQVLQENSSDFQSNIA",binding result,[1],binds
"mCherry-linked LC1 domain of hnRNPH1 (amino acids 192 through 280), His tag cleaved (domain or fragment) RTHYDPPRKLMAMQRPGPYDRPGAGRGYNSIGRGAGFERMRRGAYGGGYGGYDDYNGYNDGYGFGSDRFGRDLNYCFSGMSDHRYGDGG",binding result,[2],binds

# From PMC8685725 (Proceedings of the National Academy of Sciences of the …, 2021)
